# According to article PMC5766158 (Nucleic Acids Research, 2017):
# T1: POLA2-FLAG (human, UniProt Q14181 1-598)
# T1 sequence: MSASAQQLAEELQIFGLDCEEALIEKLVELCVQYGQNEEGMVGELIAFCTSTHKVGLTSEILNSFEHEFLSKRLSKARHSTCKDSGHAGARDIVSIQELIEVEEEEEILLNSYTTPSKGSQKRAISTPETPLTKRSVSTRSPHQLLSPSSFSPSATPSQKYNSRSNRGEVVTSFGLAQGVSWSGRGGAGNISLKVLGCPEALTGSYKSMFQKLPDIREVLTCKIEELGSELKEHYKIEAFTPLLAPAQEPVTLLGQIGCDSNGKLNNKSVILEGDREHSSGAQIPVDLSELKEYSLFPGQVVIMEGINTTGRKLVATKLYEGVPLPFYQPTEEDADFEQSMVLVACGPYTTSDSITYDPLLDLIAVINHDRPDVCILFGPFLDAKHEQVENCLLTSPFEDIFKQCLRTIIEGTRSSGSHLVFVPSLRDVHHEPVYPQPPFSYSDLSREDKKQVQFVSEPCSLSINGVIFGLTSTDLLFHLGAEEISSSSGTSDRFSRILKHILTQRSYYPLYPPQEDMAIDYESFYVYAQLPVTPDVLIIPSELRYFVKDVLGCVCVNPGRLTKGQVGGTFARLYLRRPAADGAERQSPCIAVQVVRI
# T2: POLA2(1-414)-FG3 (human, UniProt Q14181 1-414)
# T2 sequence: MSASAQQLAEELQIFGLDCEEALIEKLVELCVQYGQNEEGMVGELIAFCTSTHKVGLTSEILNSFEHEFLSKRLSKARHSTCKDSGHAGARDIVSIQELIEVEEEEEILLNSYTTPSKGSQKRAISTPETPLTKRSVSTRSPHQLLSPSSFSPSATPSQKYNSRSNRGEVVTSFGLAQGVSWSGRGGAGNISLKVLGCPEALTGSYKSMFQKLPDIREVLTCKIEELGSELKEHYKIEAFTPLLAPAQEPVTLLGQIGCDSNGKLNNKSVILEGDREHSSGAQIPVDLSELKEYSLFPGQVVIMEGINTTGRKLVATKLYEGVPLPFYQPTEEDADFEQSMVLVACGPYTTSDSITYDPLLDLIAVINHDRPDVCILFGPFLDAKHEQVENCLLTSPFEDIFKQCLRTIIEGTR
# B1: POLA2(1-334)-FG3 (domain or fragment)
# chain: MSASAQQLAEELQIFGLDCEEALIEKLVELCVQYGQNEEGMVGELIAFCTSTHKVGLTSEILNSFEHEFLSKRLSKARHSTCKDSGHAGARDIVSIQELIEVEEEEEILLNSYTTPSKGSQKRAISTPETPLTKRSVSTRSPHQLLSPSSFSPSATPSQKYNSRSNRGEVVTSFGLAQGVSWSGRGGAGNISLKVLGCPEALTGSYKSMFQKLPDIREVLTCKIEELGSELKEHYKIEAFTPLLAPAQEPVTLLGQIGCDSNGKLNNKSVILEGDREHSSGAQIPVDLSELKEYSLFPGQVVIMEGINTTGRKLVATKLYEGVPLPFYQPTEED
# B2: STN1N-Strep (domain or fragment)
# chain: MQPGSSRCEEETPSLLWGLDPVFLAFAKLYIRDILDMKESRQVPGVFLYNGHPIKQVDVLGTVIGVRERDAFYSYGVDDSTGVINCICWKKLNTESVSAAPSAARELSLTSQLKKLQETIEQKTKIEIGDTIRVRGSIRTYREEREIHATTYYKVDDPVWNIQIARMLELPTIYRKVYDQPFHSSALEKE
# B3: full length STN1-Strep (STN1F-Strep) (natural protein)
# chain: MQPGSSRCEEETPSLLWGLDPVFLAFAKLYIRDILDMKESRQVPGVFLYNGHPIKQVDVLGTVIGVRERDAFYSYGVDDSTGVINCICWKKLNTESVSAAPSAARELSLTSQLKKLQETIEQKTKIEIGDTIRVRGSIRTYREEREIHATTYYKVDDPVWNIQIARMLELPTIYRKVYDQPFHSSALEKEEALSNPGALDLPSLTSLLSEKAKEFLMENRVQSFYQQELEMVESLLSLANQPVIHSASSDQVNFKKDTTSKAIHSIFKNAIQLLQEKGLVFQKDDGFDNLYYVTREDKDLHRKIHRIIQQDCQKPNHMEKGCHFLHILACARLSIRPGLSEAVLQQVLELLEDQSDIVSTMEHYYTAF
# Legend:
# STN1N-Strep = target: B2; experiment: pull-down
# [1] = target: B3; experiment: pull-down
# POLA2-FLAG = target: T1, POLA2-FLAG; experiment: cell-based or functional assay
# POLA2(1-334)-FG3 = target: B1; experiment: pull-down
# POLA2(1-414)-FG3 = target: T2, POLA2(1-414)-FG3; experiment: pull-down
binding result (POLA2(1-414)-FG3),Binder,further results
,POLA2OB-FG3 (domain or fragment) GSYKSMFQKLPDIREVLTCKIEELGSELKEHYKIEAFTPLLAPAQEPVTLLGQIGCDSNGKLNNKSVILEGDREHSSGAQIPVDLSELKEYSLFPGQVVIMEGINTTGRKLVATKLYEGVPLPFYQPTEED,binding result (STN1N-Strep): binds
,B1,binding result [1]: binds
,STN1N-Strep R135T (domain or fragment) MQPGSSRCEEETPSLLWGLDPVFLAFAKLYIRDILDMKESRQVPGVFLYNGHPIKQVDVLGTVIGVRERDAFYSYGVDDSTGVINCICWKKLNTESVSAAPSAARELSLTSQLKKLQETIEQKTKIEIGDTIRVTGSIRTYREEREIHATTYYKVDDPVWNIQIARMLELPTIYRKVYDQPFHSSALEKE,"PP stimulatory activity against wild-type STN1N (1.5 uM, poly-dT template) (POLA2-FLAG): 2 fold"
binds,B2,binding result (POLA2(1-334)-FG3): binds
binds,STN1N-Strep R135W (domain or fragment) MQPGSSRCEEETPSLLWGLDPVFLAFAKLYIRDILDMKESRQVPGVFLYNGHPIKQVDVLGTVIGVRERDAFYSYGVDDSTGVINCICWKKLNTESVSAAPSAARELSLTSQLKKLQETIEQKTKIEIGDTIRVWGSIRTYREEREIHATTYYKVDDPVWNIQIARMLELPTIYRKVYDQPFHSSALEKE,
binds,STN1N-Strep D157Y (domain or fragment) MQPGSSRCEEETPSLLWGLDPVFLAFAKLYIRDILDMKESRQVPGVFLYNGHPIKQVDVLGTVIGVRERDAFYSYGVDDSTGVINCICWKKLNTESVSAAPSAARELSLTSQLKKLQETIEQKTKIEIGDTIRVRGSIRTYREEREIHATTYYKVDYPVWNIQIARMLELPTIYRKVYDQPFHSSALEKE,
binds,STN1N-Strep OBM-2 (W89A/R139A/Y141A) (domain or fragment) MQPGSSRCEEETPSLLWGLDPVFLAFAKLYIRDILDMKESRQVPGVFLYNGHPIKQVDVLGTVIGVRERDAFYSYGVDDSTGVINCICAKKLNTESVSAAPSAARELSLTSQLKKLQETIEQKTKIEIGDTIRVRGSIATAREEREIHATTYYKVDDPVWNIQIARMLELPTIYRKVYDQPFHSSALEKE,
binds,B3,
